Consider one molecule from patent US20220041753A1 (H LEE MOFFITT CANCER CENTER AND RESEARCH INSTITUTE, published 2022).

This assay addresses T1, ZNRF3 ECD (UniProt Q9ULT6 56-219, limits assumed).
T1 construct: extracellular domain; also called ZNRF3 extracellular domain; fluorescently labeled ZNRF3 ECDs
T1 sequence (looked up): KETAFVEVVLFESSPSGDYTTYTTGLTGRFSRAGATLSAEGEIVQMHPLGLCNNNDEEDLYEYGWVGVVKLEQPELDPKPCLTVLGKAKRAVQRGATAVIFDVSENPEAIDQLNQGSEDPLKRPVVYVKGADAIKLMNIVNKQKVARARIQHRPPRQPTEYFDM
The assay can be described thus: surface plasmon resonance (FIG. 3B).

One may read the Kd as the concentration at which binding is half-saturated. The low end stands for a tighter complex, the high end for a looser complex.

B1: ZNRF3-specific scFv "Z6" (scFv)
scFv: ASQVQLVQSGAEVKNPGASVKVSCKASGYAFTSYGISWVRQAPGQGLEWMGWISAYTRNTNYAQKFQGRVTLTTDTSTSTAYMELRSLRSDDTAIYYCARDARYSLGVGAFDVWGQGTMVTVSSGILGSGGGGSGGGGSGGGGSETTLTQSPAFMSATPGDKVSISCKASRDIDDDLNWYQQKPGEAAISIIQEATTLVPGIPPRFSGSGYGTDFTLTINNIESEDAAYYFCLQHDDVPYTFGQGTKLEIKSGIL
notes: the display fusion is not described; also called ZNRF3-specific single-chain antibody variable fragment (scFv)
B1 displayed a dissociation constant (Kd) of 80 nM.
